Test results as given in the PETadex activity labels (doi:10.1016/j.enzmictec.2020.109715).

Assays:
pNP-C8 [1] = assay: Proxy for plastic degradation [Relative activity]
PET = assay: Proxy for plastic degradation [Released monomer concentration (HPLC/LC-MS) (MHET+TPA+BHET)]; details: pH 8
BHET = details: pH 7; 40 °C; part of the chain shown
p-NP-C2 = details: pH 7; 40 °C; part of the chain shown
p-NP-C4 = details: pH 7; 40 °C; part of the chain shown
pNP-C8 [2] = assay: Proxy for plastic degradation [p-nitrophenol (pNP) release] (% relative activity)

B1: unnamed (protein)
chain: SNPYQRGPNPTRSALTADGPFSVATYTVSRLSVSGFGGGVIYYPTGTSLTFGGIAMSPGYTADASSLAWLGRRLASHGFVVLVINTNSRFDYPDSRASQLSAALNYLRTSSPSAVRARLDANRLAVAGHSMGGGGTLRIAEQNPSLKAAVPLTPWHTDKTFNTSVPVLIVGAEADTVAPVSQHAIPFYQNLPSTTPKVYVELDNASHFAPNSNNAAISVYTISWMKLWVDNDTRYRQFLCNVNDPALSDFRTNNRHCQ
Q: With B1 as the protein, how does the “Proxy for plastic degradation” value (pNP-C8 [1]; 5 °C, part of the chain shown) read?
A: 100%

Q: What about the “Proxy for plastic degradation” value (pNP-C8 [1]; 30 °C, part of the chain shown) of the same protein?
A: 35%

Q: And the “Proxy for plastic degradation” value (pNP-C8 [1]; 35 °C, part of the chain shown)?
A: 48%

Q: What about the “Proxy for plastic degradation” value (pNP-C8 [1]; pH 3, part of the chain shown) of the same protein?
A: 0%

Q: And the “Proxy for plastic degradation” value (pNP-C8 [1]; pH 4, part of the chain shown)?
A: 20%

Q: And the “Proxy for plastic degradation” value (pNP-C8 [1]; pH 5, part of the chain shown)?
A: 70%

Q: And the “Proxy for plastic degradation” value (pNP-C8 [1]; pH 6, part of the chain shown)?
A: 100%

Q: What about the “Proxy for plastic degradation” value (pNP-C8 [1]; pH 7, part of the chain shown) of the same protein?
A: 100%

Q: And the “Proxy for plastic degradation” value (pNP-C8 [1]; pH 8, part of the chain shown)?
A: 90%

Q: What about the “Proxy for plastic degradation” value (pNP-C8 [1]; pH 9, part of the chain shown) of the same protein?
A: 55%

Q: And the “Proxy for plastic degradation” value (pNP-C8 [1]; pH 10, part of the chain shown)?
A: 0%

Q: What about the “Proxy for plastic degradation” value (PET; 30 °C, part of the chain shown) of the same protein?
A: 0 mM

Q: What about the “Proxy for plastic degradation” value (PET; 40 °C, part of the chain shown) of the same protein?
A: 0.4 mM

Q: What about the “Proxy for plastic degradation” value (PET; 50 °C, part of the chain shown) of the same protein?
A: 1.5 mM

Q: What about the “Proxy for plastic degradation” value (PET; 60 °C, part of the chain shown) of the same protein?
A: 3.8 mM

Q: And the “Proxy for plastic degradation” value (PET; 70 °C, part of the chain shown)?
A: 5.8 mM

Q: What about the “Proxy for plastic degradation” value (PET; 80 °C, part of the chain shown) of the same protein?
A: 4 mM

B2: unnamed (protein)
chain: QSNPYQRGPNPTRSALTTDGPFSVATYSVSRLSVSGFGGGVIYYPTGTTLTFGGIAMSPGYTADASSLAWLGRRLASHGFVVIVINTNSRLDFPDSRASQLSAALNYLRTSSPSAVRARLDANRLAVAGHSMGGGATLRISEQIPTLKAGVPLTPWHTDKTFNTPVPQLIVGAEADTVAPVSQHAIPFYQNLPSTTPKVYVELDNATHFAPNSPNAAISVYTISWMKLWVDNDTRYRQFLCNVNDPALSDFRSNNRHCQ
Q: With B2 as the protein, how does the Km (BHET) read?
A: 16800 µM

Q: And the kcat (BHET)?
A: 7.3 s⁻¹

Q: What about the kcat/Km (BHET) of the same protein?
A: 435 M⁻¹ s⁻¹

Q: And the Km (p-NP-C2)?
A: 1150 µM

Q: What about the kcat (p-NP-C2) of the same protein?
A: 131 s⁻¹

Q: And the kcat/Km (p-NP-C2)?
A: 114000 M⁻¹ s⁻¹

Q: What about the Km (p-NP-C4) of the same protein?
A: 300 µM

Q: And the kcat (p-NP-C4)?
A: 53.9 s⁻¹

Q: And the kcat/Km (p-NP-C4)?
A: 180000 M⁻¹ s⁻¹

B3: unnamed (protein)
chain: MDGVLWRVRTAALMAALLALAAWALVWASPSVEAQSNPYQRGPNPTRSALTADGPFSVATYTVSRLSVSGFGGGVIYYPTGTSLTFGGIAMSPGYTADASSLAWLGRRLASHGFVVLVINTNSRFDYPDSRASQLSAALNYLRTSSPSAVRARLDANRLAVAGHSMGGGGTLRIAEQNPSLKAAVPLTPWHTDKTFNTSVPVLIVGAEADTVAPVSQHAIPFYQNLPSTTPKVYVELDNASHFAPNSNNAAISVYTISWMKLWVDNDTRYRQFLCNVNDPALSDFRTNNRHCQ
Q: Which results are given for B3?
A: Proxy for plastic degradation (pNP-C8 [2]; pH 3): 0; Proxy for plastic degradation (pNP-C8 [2]; pH 4): 17; Proxy for plastic degradation (pNP-C8 [2]; pH 5): 69; Proxy for plastic degradation (pNP-C8 [2]; pH 6): 100; Proxy for plastic degradation (pNP-C8 [2]; pH 7): 100; Proxy for plastic degradation (pNP-C8 [2]; pH 8): 89; Proxy for plastic degradation (pNP-C8 [2]; pH 8, 5 °C): 100; Proxy for plastic degradation (pNP-C8 [2]; pH 8, 30 °C): 32; Proxy for plastic degradation (pNP-C8 [2]; pH 8, 35 °C): 47; Proxy for plastic degradation (pNP-C8 [2]; pH 9): 54; Proxy for plastic degradation (pNP-C8 [2]; pH 10): 0

B4: unnamed (protein)
chain: MNFPRASRLMQAAVLGGLMAVSAAATAQTNPYARGPNPTAASLEASAGPFTVRSFTVSRPSGYGAGTVYYPTNAGGTVGAIAIVPGYTARQSSIKWWGPRLASHGFVVITIDTNSTLDQPSSRSSQQMAALRQVASLNGTSSSPIYGKVDTARMGVMGWSMGGGGSLISAANNPSLKAAAPQAPWDSSTNFSSVTVPTLIFACENDSIAPVNSSALPIYDSMSRNAKQFLEINGGSHSCANSGNSNQALIGKKGVAWMKRFMDNDTRYSTFACENPNSTRVSDFRTANCS
Q: Which results are given for B4?
A: Proxy for plastic degradation (pNP-C8 [2]; pH 3, part of the chain shown): 10; Proxy for plastic degradation (pNP-C8 [2]; pH 4, part of the chain shown): 17; Proxy for plastic degradation (pNP-C8 [2]; pH 5, part of the chain shown): 62; Proxy for plastic degradation (pNP-C8 [2]; pH 6, part of the chain shown): 94; Proxy for plastic degradation (pNP-C8 [2]; pH 7, part of the chain shown): 98; Proxy for plastic degradation (pNP-C8 [2]; pH 8, 5 °C, part of the chain shown): 100; Proxy for plastic degradation (pNP-C8 [2]; pH 8, 30 °C, part of the chain shown): 80; Proxy for plastic degradation (pNP-C8 [2]; pH 8, 35 °C, part of the chain shown): 100; Proxy for plastic degradation (pNP-C8 [2]; pH 8, part of the chain shown): 100; Proxy for plastic degradation (pNP-C8 [2]; pH 9, part of the chain shown): 96; Proxy for plastic degradation (pNP-C8 [2]; pH 10, part of the chain shown): 69

B5: unnamed (protein)
chain: MNFPRASRLMQAAVLGGLMAVSAAATAQTNPYARGPNPTAASLEASAGPFTVRSFTVSRPSGYGAGTVYYPTNAGGTVGAIAIVPGYTARQSSIKWWGPRLASHGFVVITIDTNSTLDQPSSRSSQQMAALRQVASLNGTSSSPIYGKVDTARMGVMGWSMGGGGSLISAANNPSLKAAAPQAPWDSSTNFSSVTVPTLIFACENDSIAPVNSSALPIYDSMSRNAKQFLEINGGSHSCANSGNSNQALIGKKGVAWMKRFMDNDTRYSTFACENPNSTRVSDFRTANCSLEHHHHHH
Q: For B5, which “Proxy for plastic degradation” value (pNP-C8 [1]; 5 °C) is on record?
A: 100%

Q: And the “Proxy for plastic degradation” value (pNP-C8 [1]; 30 °C)?
A: 80%

Q: What about the “Proxy for plastic degradation” value (pNP-C8 [1]; 35 °C) of the same protein?
A: 100%

Q: What about the “Proxy for plastic degradation” value (pNP-C8 [1]; pH 3) of the same protein?
A: 10%

Q: And the “Proxy for plastic degradation” value (pNP-C8 [1]; pH 4)?
A: 20%

Q: And the “Proxy for plastic degradation” value (pNP-C8 [1]; pH 5)?
A: 65%

Q: What about the “Proxy for plastic degradation” value (pNP-C8 [1]; pH 6) of the same protein?
A: 95%

Q: And the “Proxy for plastic degradation” value (pNP-C8 [1]; pH 7)?
A: 98%

Q: What about the “Proxy for plastic degradation” value (pNP-C8 [1]; pH 8) of the same protein?
A: 100%

Q: What about the “Proxy for plastic degradation” value (pNP-C8 [1]; pH 9) of the same protein?
A: 95%

Q: And the “Proxy for plastic degradation” value (pNP-C8 [1]; pH 10)?
A: 70%

Q: And the “Proxy for plastic degradation” value (PET; 30 °C)?
A: 1.8 mM

Q: What about the “Proxy for plastic degradation” value (PET; 40 °C) of the same protein?
A: 2.2 mM

Q: And the “Proxy for plastic degradation” value (PET; 50 °C)?
A: 0.8 mM

Q: What about the “Proxy for plastic degradation” value (PET; 60 °C) of the same protein?
A: 0.4 mM

Q: And the “Proxy for plastic degradation” value (PET; 70 °C)?
A: 0.2 mM

Q: And the “Proxy for plastic degradation” value (PET; 80 °C)?
A: 0.1 mM

B6: unnamed (protein)
chain: MQVVLGRVRSAGLLAALLALAAWALVWASPSAEAQSNPYQRGPNPTRSALTTDGPFSVATYSVSRLSVSGFGGGVIYYPTGTTLTFGGIAMSPGYTADASSLAWLGRRLASHGFVVIVINTNSRLDFPDSRASQLSAALNYLRTSSPSAVRARLDANRLAVAGHSMGGGATLRISEQIPTLKAGVPLTPWHTDKTFNTPVPQLIVGAEADTVAPVSQHAIPFYQNLPSTTPKVYVELDNATHFAPNSPNAAISVYTISWMKLWVDNDTRYRQFLCNVNDPALSDFRSNNRHCQ
Q: How did the “Proxy for plastic degradation” value (pNP-C8 [1]; 5 °C) turn out when B6 was run?
A: 100%

Q: And the “Proxy for plastic degradation” value (pNP-C8 [1]; 30 °C)?
A: 20%

Q: And the “Proxy for plastic degradation” value (pNP-C8 [1]; 35 °C)?
A: 30%

Q: What about the “Proxy for plastic degradation” value (pNP-C8 [1]; pH 3) of the same protein?
A: 0%

Q: What about the “Proxy for plastic degradation” value (pNP-C8 [1]; pH 4) of the same protein?
A: 20%

Q: And the “Proxy for plastic degradation” value (pNP-C8 [1]; pH 5)?
A: 70%

Q: What about the “Proxy for plastic degradation” value (pNP-C8 [1]; pH 6) of the same protein?
A: 95%

Q: And the “Proxy for plastic degradation” value (pNP-C8 [1]; pH 7)?
A: 100%

Q: And the “Proxy for plastic degradation” value (pNP-C8 [1]; pH 8)?
A: 100%

Q: And the “Proxy for plastic degradation” value (pNP-C8 [1]; pH 9)?
A: 90%

Q: What about the “Proxy for plastic degradation” value (pNP-C8 [1]; pH 10) of the same protein?
A: 15%

Q: What about the “Proxy for plastic degradation” value (pNP-C8 [2]; pH 3) of the same protein?
A: 0

Q: And the “Proxy for plastic degradation” value (pNP-C8 [2]; pH 4)?
A: 17

Q: What about the “Proxy for plastic degradation” value (pNP-C8 [2]; pH 5) of the same protein?
A: 69

Q: And the “Proxy for plastic degradation” value (pNP-C8 [2]; pH 6)?
A: 94

Q: And the “Proxy for plastic degradation” value (pNP-C8 [2]; pH 7)?
A: 100

Q: What about the “Proxy for plastic degradation” value (pNP-C8 [2]; pH 8) of the same protein?
A: 100

Q: What about the “Proxy for plastic degradation” value (pNP-C8 [2]; pH 8, 5 °C) of the same protein?
A: 100

Q: And the “Proxy for plastic degradation” value (pNP-C8 [2]; pH 8, 30 °C)?
A: 21

Q: What about the “Proxy for plastic degradation” value (pNP-C8 [2]; pH 8, 35 °C) of the same protein?
A: 30

Q: And the “Proxy for plastic degradation” value (pNP-C8 [2]; pH 9)?
A: 88

Q: What about the “Proxy for plastic degradation” value (pNP-C8 [2]; pH 10) of the same protein?
A: 11

Q: What about the “Proxy for plastic degradation” value (PET; 30 °C) of the same protein?
A: 0 mM

Q: And the “Proxy for plastic degradation” value (PET; 40 °C)?
A: 0.2 mM

Q: What about the “Proxy for plastic degradation” value (PET; 50 °C) of the same protein?
A: 1.1 mM

Q: And the “Proxy for plastic degradation” value (PET; 60 °C)?
A: 3.8 mM

Q: And the “Proxy for plastic degradation” value (PET; 70 °C)?
A: 6.2 mM

Q: What about the “Proxy for plastic degradation” value (PET; 80 °C) of the same protein?
A: 4.9 mM
